We go through seven molecules from patent publication US20110038790A1 (ONCLAVE THERAPEUTICS, published 2011).

Changes are numbered by the printed parent chain. A value given as a limit tells only on which side of the number the result lay.

To fix the notation:
T1: peptide 64, CGGAEDT
T1 peptide: CGGAEDT

T2: peptide 67, CGGHEDA
T2 peptide: CGGHEDA

T3: peptide 40, CGGAEDS
T3 peptide: CGGAEDS

B1: human AA amyloid (renal AA amyloid extract or tissue deposits) (other, UniProt P0DJI8 19-94, looked up)
chain: RSFFSFLGEAFDGARDMWRAYSDMREANYIGSDKYFHARGNYDAAKRGPGGAWAAEVITDARENIQRFFGHGAEDS
notes: Heterogeneous tissue-derived amyloid; also called human renal AA amyloid extract; human AA amyloid extract
B2: murine monoclonal antibody 2A4 (antibody, V domains shown)
VH: EVQLVESGGRLVQPKGSLKLSCAASGFTFNTYAMYWIRQAPGKGLEWVARIRSKSNNYAIYYADSVKDRFTIFRDDSQSMLYLQMNNLKTEDTAMYYCVRPYSDSFAYWGQGTLVTVSA
VL: DVVMTQTPLSLPVSLGDQASISCRSSQSLVHSTGNTYLHWYLQKPGQSPKLLIYKVSNRFSGVPDRFSGSGSGTYFTLKISRVEAEDLGVYFCSQSTHVPFTFGGGTKLEIK
notes: Mouse IgG2b kappa; Used as hybridoma culture supernatant or protein A-purified mAb; also called mAb 2A4; 2A4.20.44.77
B3: murine monoclonal antibody 8G9 (antibody, mouse IgG2b, V domains shown)
VH: B2 VH
VL: B2 VL
notes: Mouse IgG2b kappa; also called mAb 8G9; 8G9.3.4.51.22
B4: murine monoclonal antibody 7D8 (antibody, mouse IgG2b, V domains shown)
VH: B2 VH
VL: B2 VL with Q27L
notes: Mouse IgG2b kappa; also called mAb 7D8; 7D8.29.19.47
B5: peptide 41, GHEDTIADQE (peptide)
peptide: GHEDTIADQE
notes: also called p41; p#41
B6: murine AA amyloid (AA fibrils, amyloid enhancing factor extract or tissue deposits) (other, mouse, UniProt P05367 20-94, looked up)
chain: GFFSFIGEAFQGAGDMWRAYTDMKEAGWKDGDKYFHARGNYDAAQRGPGGVWAAEKISDARESFQEFFGRGHEDT
notes: Heterogeneous tissue-derived amyloid; also called Mouse AA (AEF); murine AA fibrils
B7: peptide 39, CGGHEDT (immunogen peptide EPRB-39) (peptide)
peptide: CGGHEDT
notes: also called p39; p#39

Assay [1] concerns the target B4. Briefly: competition ELISA: human AA amyloid in solution against adsorbed mouse AA (AEF), mAb 7D8. As to the method:
(§1) To determine the effect, if any, of potential denaturation when adsorbed to the surface of the microtiter well, the reactivity of the 2A4, 8G9 and […] was evaluated using a competition ELISA in which murine or human AA amyloid extract was used as a soluble competitor for the interaction of the mAbs with surface-bound AA extract.
(§2) In general, the murine AA (AEF) extract was a better competitor than the human AA (Table 6).
For orientation: ELISA stands for enzyme-linked immunosorbent assay.

Assay [2] has as its target B3. Briefly: competition ELISA: human AA amyloid in solution against adsorbed mouse AA (AEF), mAb 8G9. On the procedure:
as §1, §2

Assay [3] concerns the target B2. Put plainly: competition ELISA: human AA amyloid in solution against adsorbed mouse AA (AEF), mAb 2A4. On the procedure:
as §1, §2

In assay [4] the target is B7. Put plainly: ELISA, purified mAb on adsorbed peptide 39.
The target in assay [5] is B5. Put plainly: ELISA, purified mAb on adsorbed peptide 41. On the procedure: (§3) Protein Mr markers (Std) are, form top to bottom: 176, 119, 75, 49, 39, 25 and 19 kDa. The interaction of the purified mAbs with immunizing peptide p#39, control peptide (p#41), murine and human AA extracts were determined by ELISA as described above.
(§4) In contrast, even at the highest concentration of mAb used (100 nM) there was little detectable binding to the p#41 peptide (FIG. 33—Each point represents the mean±SE, (n=3 at each concentration)). […] The calculated EC50 values for the mAbs binding to mouse AA extract were essentially identical to those obtained when the p#39 peptide was used as the substrate (FIG. 34; Table 5). […] Because the EC50 value for 7D8 mAb binding was the lowest of the 3 antibodies tested, Applicants selected this reagent for in vivo co-localization and imaging studies. The 2 amino acid substitutions in the human SAA sequence with respect to the murine protein affected the EC50 values.

For assay [6], the target named is B1. Put plainly: ELISA, purified mAb on adsorbed human AA amyloid extract. On the procedure: as §3, §4
Assay [7] concerns the target B6. Briefly: ELISA, purified mAb on adsorbed mouse AA (AEF). On the procedure: as §3, §4
Assay [8] addresses T1, peptide 64, CGGAEDT. Briefly: BIAcore analysis of peptide binding. Background: In SPR one partner is held on a chip, and binding of the other changes the refractive index at the surface.
Assay [9] concerns the target T2, peptide 67, CGGHEDA. Briefly: BIAcore analysis of peptide binding.
For assay [10], the target named is T3, peptide 40, CGGAEDS. Put plainly: BIAcore analysis of peptide binding.
The target of assay [11] is B6. Briefly: ELISA, hybridoma culture supernatant on murine AA (AEF). An excerpt: The interaction of 2A4, 8G9 and 7D8 mAbs with AA amyloid was initially tested by ELISA and the data, given in FIG. 31, analyzed using SigmaPlot (SPSS Inc.). Each point represents the mean±SE (n=3). A culture supernatant from an irrelevant hybridoma was used as a control (Ctrl Culture Sup). […] (In addition, the immunohistochemical reactivity of the day 1 material was greater than the day 2 samples). […] Because of the low signal and high variability found with the culture supernatants and to determine more accurately the relative binding affinity of the mAbs for murine and human AA amyloid fibrils (as well as to provide material for in vivo biodistribution studies) it was necessary to isolate the mAbs by protein A affinity chromatography. The purity of the isolated mAbs was established SDS-PAGE using 10% acrylamide gels under reducing and non-reducing conditions (FIG. 32). Samples in lanes 1-4 treated with mercaptoethanol, lanes 5-9 without. Gel was stained with Coomassie blue: mAb 8G9, lanes 1 and 6; mAb 2A4, lanes 2 and 7; mAb 7D8, lanes 3 and 8; SP2/0 control supernatant, lanes 4 and 9; blank, lane 5. Protein Mr markers (Std) are, form top to bottom: 176, 119, 75, 49, 39, 25 and 19 kDa. The interaction of the purified mAbs with immunizing peptide p#39, control peptide (p#41), murine and human AA extracts were determined by ELISA as described above.

Assay [12] addresses B2. Put plainly: immunohistochemistry, preincubation of 2A4 supernatant with peptide before staining murine AA amyloid. An excerpt:
The reactivity of supernatants from hybridomas expressing antibodies 2A4, 8G9 and 7D8 to murine AA splenic and hepatic amyloid deposits (the principal sites of amyloid deposition) was documented immunohistochemically. For these studies, sections of tissue harvested from a TRIAD mouse with extensive AA amyloid in the liver and spleen (as evidenced by green birefringent Congophilic deposits) were stained with the mAb-containing supernatants. All 3 bound to the hepatic and splenic amyloid. In contrast, there was no reactivity with culture supernatants derived from irrelevant hybridomas. The capability of the amyloid using 2A4, 8G9 and 7D8 to immunostain amyloid in fresh (unfixed), OCT-embedded murine liver and spleen was tested. There was evidence that the mAbs retained their ability to bind AA amyloid in the hepatic sinusoid. In addition, the antibody reactivity with splenic tissue was easier to interpret, and the perifollicular amyloid was intensely immunostained. […] In contrast, the p#41 peptide was ineffective.

Assay [13] addresses B3. Put plainly: competition ELISA: mouse AA (AEF) in solution against adsorbed human AA amyloid extract, mAb 8G9. As to the method:
as §1, §2

The target of assay [14] is B4. Put plainly: competition ELISA: mouse AA (AEF) in solution against adsorbed human AA amyloid extract, mAb 7D8. On the procedure:
as §1, §2

The target in assay [15] is B2. Put plainly: competition ELISA: mouse AA (AEF) in solution against adsorbed human AA amyloid extract, mAb 2A4. On the procedure:
as §1, §2

Assay [16] deals with B2. Put plainly: immunohistochemistry, supernatant (1:25) preincubated with peptide.
Assay [17] has as its target B4. Briefly: SPR competition, 7D8 with p39 at 1 µg/mL over immobilized Vλ6 Wil fibrils.
The target in assay [18] is B3. Briefly: immunohistochemistry with peptide inhibition, human ovarian tissue.

For B1, the half-inhibitory concentration (IC50) was over 881 µg/mL in assay [1], over 120 µg/mL in assay [2] and over 212 µg/mL in assay [3].

As to B2, the EC50 in assay [4] is 3.4 nM; in [5] it was over 100 nM; in [6], 26.4 nM; in assay [7] it was 4.09 nM. The binding result in assay [8], in assay [9] and in assay [10] was “binds” in each case. For the same molecule, the “dilution of culture supernatant after which reactivity is absent” value (“dilution of culture supernatant” below) in assay [11] is ~64 dilution factor (1:x).

With B3, the EC50 is 4 nM in assay [4], over 100 nM in assay [5], 31.7 nM in assay [6] and 5.64 nM in [7]. In assay [11], the “dilution of culture supernatant” value was ~64 dilution factor (1:x).

Regarding B4, the EC50 was 2.3 nM in assay [4], over 100 nM in [5], 13.3 nM in assay [6] and 1.84 nM in assay [7]. The binding result in [8], in [9] and in assay [10] was “binds” in each case. In [11], the “dilution of culture supernatant” value was ~64 dilution factor (1:x).

On to B5, for which the binding result in [12] is recorded as “no binding (tested: 50 µg/mL)”.

Turning to B6, the results for the IC50 in assay [13], in assay [14] and in [15] were 17.3 µg/mL, 26.8 µg/mL and 14.7 µg/mL, respectively.

On to B7, for which the binding result in [16] and in assay [18] was “binds” each time. The “fold decrease in the extent of binding of 7D8 to Vλ6 Wil fibrils” value in assay [17] is over 2 fold.

The term IC50 denotes the concentration at which inhibition is half-maximal. The low end stands for greater potency, the high end for weaker potency. As usually defined, the EC50 is the concentration needed to bring the measured effect to its halfway point.
